Here are results for one substance from article PMC10881151.

Assay [1] concerns the target Drp1-S579D (phosphomimetic mutant of human DRP1 isoform 3) (human). As to the kind of experiment: co-sedimentation.
For assay [2], the target named is Drp1-S600D (phosphomimetic mutant of human DRP1 isoform 3) (human). In words: co-sedimentation.

For the substance “MFF-∆TM (truncated human MFF isoform 4) (from UniProt Q9GZY8-4 1-218) (domain or fragment)”, the percent less Drp1 and Mff in the pellets than for Drp1-WT in assay [1] and in assay [2] was 50% in each case.
